Reference: US20240076361A1 (EISAI R AND D MANAGEMENT, published 2024)

Target: T1, non-phosphorylated Tau (Tau-441 (2N4R), rPeptide LLC) (human, UniProt P10636 1-758)
T1 construct: also called non-phosphorylated Tau protein (2N4R); recombinant Tau
Experiment: sandwich ELISA: antigen captured by coated anti-Tau antibody BT2, detected with the peroxidase-labelled antibody at 80 ng/mL; antigen concentration varied
Method: Anti-Tau monoclonal antibody BT2 (Thermo Fisher Scientific) was adjusted with 50 mM Tris/HCl (pH 7.5) to a concentration of 1 microgram/mL, and then injected at 100 microliter/well in a Maxisorp cup (NUNC). The cup was placed in a humid box and coated overnight at 4 degrees Celsius. After the antibody solution was removed by aspiration, a blocking solution (5% skimmed milk (FUJIFILM Wako Pure Chemical), 50 mM Tris/HCl (pH 7.5), 150 mM NaCl, 0.1% sodium azide) was injected at 200 microliter/well, followed by blocking at room temperature for 2 hours or at 4 degrees Celsius for one day or more (hereinafter referred to as “BT2 cup”). The test recombinant antibodies: 5F6-4D1, 7G5-4B8, 2H8-1G7, 2H8-1G7(KC14S) and comparator antibodies: PT3 and anti-pT217 Tau polyclonal antibody (Genscript poly; Cat. No. A00896, Genscript) were labeled with peroxidase using a Peroxidase Labeling Kit-NH2 (DOJINDO MOLECULAR TECHNOLOGIES) in accordance with the instruction manual attached to the kit (hereinafter referred to as “peroxidase-labeled pT217 Tau antibodies”). […]

T1 sequence (P10636 other isoform, or with tags, fused parts or gaps limits assumed): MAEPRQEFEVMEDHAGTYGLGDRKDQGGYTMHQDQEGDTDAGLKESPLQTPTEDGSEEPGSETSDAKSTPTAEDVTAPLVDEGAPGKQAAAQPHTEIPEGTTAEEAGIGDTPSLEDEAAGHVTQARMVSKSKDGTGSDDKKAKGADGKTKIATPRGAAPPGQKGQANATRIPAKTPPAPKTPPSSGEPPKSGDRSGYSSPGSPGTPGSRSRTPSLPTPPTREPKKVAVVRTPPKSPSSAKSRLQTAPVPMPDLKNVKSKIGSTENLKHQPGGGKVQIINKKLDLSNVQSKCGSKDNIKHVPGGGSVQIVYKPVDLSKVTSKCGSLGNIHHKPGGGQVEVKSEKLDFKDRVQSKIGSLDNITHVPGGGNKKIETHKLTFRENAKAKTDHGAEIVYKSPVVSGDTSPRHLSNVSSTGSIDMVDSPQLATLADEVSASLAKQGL

binding result: no binding (tested: 80000 pg/mL)
B1: 2H8-1G7(KC14S) (antibody, mouse IgG2b, kappa, V domains shown)
VH: EVQLVESGGGLVKPGGSLKLSCAASGFTVSDYGMHWVRQAPEKGLEWIAYISSGSSTIYYVDTVKGRFTISRDNAKNTLFLQMTSLRSEDTAMYYCARRLSIWGTGTTVTVSS
VL: QIVLTQSPAIMSASPGEKVTMTCSASSSVSSMYWYHQKPGSSPRLLIYDTSNLASGVPVRFSGSGSGTSYSLTISRMEAEDAATYYCLQWSSYPLTFGAGTKLELKR
notes: Recombinant mouse IgG2b kappa
